Data published in patent US8632989B1, “Mutant insulin degrading enzyme and methods of use” (University of Kentucky Research Foundation, priority 2011, dated 2014).
Substitutions are numbered along the chain they refer to. Numbers in names are those of the source. Like-named read-outs stand apart in the source and are kept apart here.

How the values were obtained:
[1] = biological target: T1, Abz-GGFLRKHGQ-EDDnp
T1 chain: GGFLRKHGQ

[2] = biological target: bradykinin, P01042
[3] = system: Abz-GGFLRKHGQ-EDDnp; assay: Enzyme activity assay, kinetics of wild type rIDE and distal site mutants with fluorogenic substrate; type: biochemical; details: Abz-GGFLRKHGQ-EDDnp substrate
Description: FIG. 17. Effects of distal site mutations. (A) Comparison of the kinetics of wild type IDE with the distal site mutants. Activity was measured with varying amounts of Abz-[…]-EDDnp (SEQ ID NO:3) substrate as indicated. Either hyperbolic (Michaelis-Menten equation) or sigmoidal curves (Hill equation) were fit to the data. (B) Effect of bradykinin on the activity of wild type IDE and the distal site mutants. (C) Activation of wild type IDE and distal site mutants by ATP. Relative activity is the fold activation above the level of the wild type enzyme alone.
The activity of IDE was measured by following the increase in fluorescence upon hydrolysis at the L-R bond of the fluorogenic peptide Abz-[…]-EDDnp (SEQ ID NO:3) on a SpectraMax Gemini XS fluorescence plate reader using an excitation wavelength of 318 nm and emission wavelength of 419 nm. Reactions were carried out in 200 μl volumes containing 50 mM Tris-HCl, pH 7.4, 1.92 μg of wild type rIDE, 4.6 μg of rIDE-V360S, 4.3 μg rIDE-I374S, or 1.63 μg of rIDE-Y609F. For measurements of activation by bradykinin, IDE activity was determined with 10 μM Abz-[…]-EDDnp (SEQ ID NO:3) as substrate in 50 mM Tris-HCl buffer, pH 7.4. The amount of protein was 0.5 μg for wild type rIDE and 5 μg for each of the IDE distal-site mutants. Data were analyzed using Softmax 4.0 (Molecular Devices) and kinetic parameters calculated with Prism (Graphpad Software). […] Under these assay conditions, both wild type and mutant rIDE are almost completely dimeric.

bradykinin, P01042, sequence (P01042 whole entry, looked up): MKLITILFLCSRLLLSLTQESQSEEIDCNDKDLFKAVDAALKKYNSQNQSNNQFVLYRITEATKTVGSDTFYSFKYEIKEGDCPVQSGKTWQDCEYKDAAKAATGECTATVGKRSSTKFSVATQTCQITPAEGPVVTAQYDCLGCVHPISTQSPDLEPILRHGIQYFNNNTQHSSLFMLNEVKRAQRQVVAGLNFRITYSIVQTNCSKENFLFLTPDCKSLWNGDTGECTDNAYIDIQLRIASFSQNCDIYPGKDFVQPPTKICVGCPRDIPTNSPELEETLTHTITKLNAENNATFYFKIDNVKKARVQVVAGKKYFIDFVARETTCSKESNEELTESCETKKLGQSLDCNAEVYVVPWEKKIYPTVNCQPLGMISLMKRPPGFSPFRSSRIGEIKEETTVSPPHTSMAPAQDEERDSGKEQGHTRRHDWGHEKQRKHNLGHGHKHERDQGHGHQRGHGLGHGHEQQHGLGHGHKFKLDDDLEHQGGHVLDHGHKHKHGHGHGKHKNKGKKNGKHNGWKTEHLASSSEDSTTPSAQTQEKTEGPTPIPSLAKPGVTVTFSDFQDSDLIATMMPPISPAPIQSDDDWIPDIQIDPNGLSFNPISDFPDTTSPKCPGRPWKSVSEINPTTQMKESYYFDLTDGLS

B1: wild type rat IDE (rIDE), Example 2 (protein)
chain: MNNPAIQRIEDHIVKSPEDKREYRGLELANGIKVLLISDPTTDKSSAALDVHIGSLSDPPNIPGLSHFCEHMLFLGTKKYPKENEYSQFLSEHAGSSNAFTSGEHTNYYFDVSHEHLEGALDRFAQFFLCPLFDASCKDREVNAVDSEHEKNVMNDAWRLFQLEKATGNPKHPFSKFGTGNKYTLETRPNQEGIDVREELLKFHSTYYSSNLMAICVLGRESLDDLTNLVVKLFSEVENKNVPLPEFPEHPFQEEHLKQLYKIVPIKDIRNLYVTFPIPDLQQYYKSNPGHYLGHLIGHEGPGSLLSELKSKGWVNTLVGGQKEGARGFMFFIINVDLTEEGLLHVEDIILHMFQYIQKLRAEGPQEWVFQECKDLNAVAFRFKDKERPRGYTSKIAGKLHYYPLNGVLTAEYLLEEFRPDLIDMVLDKLRPENVRVAIVSKSFEGKTDRTEQWYGTQYKQEAIPEDVIQKWQNADLNGKFKLPTKNEFIPTNFEILALEKDATPYPALIKDTAMSKLWFKQDDKFFLPKACLNFEFFSPFAYVDPLHCNMAYLYLELLKDSLNEYAYAAELAGLSYDLQNTIYGMYLSVKGYNDKQPILLKKITEKMATFEIDKKRFEIIKEAYMRSLNNFRAEQPHQHAMYYLRLLMTEVAWTKDELKEALDDVTLPRLKAFIPQLLSRLHIEALLHGNITKQAALGVMQMVEDTLIEHAHTKPLLPSQLVRYREVQLPDRGWFVYQRRNEVHNNCGIEIYYQTDMQSTSENMFLELFCQIISEPCFNTLRTKEQLGYIVFSGPRRANGIQGLRFIIQSEKPPHYLESRVEAFLITMEKAIEDMTEEAFQKHIQALAIRRLDKPKKLSAECAKYWGEIISQQYNYDRDNIEVAYLKTLSKDDIIKFYKEMLAVDAPRRHKVSVHVLAREMDSCPVVGEFPSQNDINLSEAPPLPQPEVIHNMTEFKRGLPLFPLVKPHINFMAAKL
Hill coefficient [1]: 1.8
Km [1]: 15.9 µM
Specific activity [1]: 8,131 nmol/min/mg for the wild type enzyme
Vmax [1]: 35.5 nmol/min/mg
Heterotropic activation of Abz-GGFLRKHGQ-EDDnp hydrolysis [2]: approximately 4-fold for the wild type enzyme

B2: rIDE-E111F (protein)
chain: B1 chain with E70F
Specific activity [1]: 5.2 nmol/min/mg for the E111F mutant
Specific activity [3]: 5.2 nmol/min/mg

B3: rIDE-Y609F (protein)
chain: B1 chain with Y568F
Hill coefficient [1]: 1.04
Km [1]: 6.86 µM
Vmax [1]: 2.6 nmol/min/mg
Heterotropic activation of Abz-GGFLRKHGQ-EDDnp hydrolysis [2]: is also lost in all three mutants

B4: wild type rat IDE, Example 1 (protein)
chain: TMNNPAIQRIEDHIVKSPEDKREYRGLELANGIKVLLISDPTTDKSSAALDVHIGSLSDPPNIPGLSHFCFHMLFLGTKKYPKENEYSQFLSEHAGSSNAFTSGEHTNYYFDVSHEHLEGALDRFAQFFLCPLFDASCKDREVNAVDSEHEKNVMNDAWRLFQLEKATGNPKHPFSKFGTGNKYTLETRPNQEGIDVREELLKFHSTYYSSNLMAICVLGRESLDDLTNLVVKLFSEVENKNVPLPEFPEHPFQEEHLKQLYKIVPIKDIRNLYVTFPIPDLQQYYKSNPGHYLGHLIGHEGPGSLLSELKSKGWVNTLVGGQKEGARGFMFFIINVDLTEEGLLHVEDIILHMFQYIQKLRAEGPQEWVFQECKDLNAVAFRFKDKERPRGYTSKIAGKLHYYPLNGVLTAEYLLEEFRPDLIDMVLDKLRPENVRVAIVSKSFEGKTDRTEQWYGTQYKQEAIPEDVIQKWQNADLNGKFKLPTKNEFIPTNFEILALEKDATPYPALIKDTAMSKLWFKQDDKFFLPKACLNFEFFSPFAYVDPLHCNMAYLYLELLKDSLNEYAYAAELAGLSYDLQNTIYGMYLSVKGYNDKQPILLKKITEKMATFEIDKKRFEIIKEAYMRSLNNFRAEQPHQHAMYYLRLLMTEVAWTKDELKEALDDVTLPRLKAFIPQLLSRLHIEALLHGNITKQAALGVMQMVEDTLIEHAHTKPLLPSQLVRYREVQLPDRGWFVYQRRNEVHNNCGIEIYYQTDMQSTSENMFLELFCQIISEPCFNTLRTKEQLGYIVFSGPRRANGIQGLRFIIQSEKPPHYLESRVEAFLITMEKAIEDMTEEAFQKHIQALAIRRLDKPKKLSAECAKYWGEIISQQYNYDRDNIEVAYLKTLSKDDIIKFYKEMLAVDAPRRHKVSVHVLAREMDSCPVVGEFPSQNDINLSEAPPLPQPEVIHNMTEFKRGLPLFPLVKPHINFMAAKL
Hill coefficient [1]: 2.1
Vmax [1]: 47.2 nmol/min/mg
kcat [1]: 0.0867 s⁻¹

B5: IDE^R429S (protein)
chain: B4 chain with F71E, R389S
Hill coefficient [1]: 1.7
Vmax [1]: 42.3 nmol/min/mg
kcat [1]: 0.0783 s⁻¹

B6: IDE^K898A,K899A,S901A (protein)
chain: B4 chain with F71E, K858A, K859A, S861A
Hill coefficient [1]: 1.7
Vmax [1]: 141 nmol/min/mg
kcat [1]: 0.258 s⁻¹
effect of bradykinin on the rate of Abz-GGFLRKHGQ-EDDnp hydrolysis [2]: the observed rate for IDE^K898A,K899A,S901A was significantly reduced
